# Measurements taken from patent US20260284216 (published 2026).
# Like-named read-outs stand apart in the source and are kept apart here.
# T1: Trop2 (human, UniProt P09758)
# T1 chain: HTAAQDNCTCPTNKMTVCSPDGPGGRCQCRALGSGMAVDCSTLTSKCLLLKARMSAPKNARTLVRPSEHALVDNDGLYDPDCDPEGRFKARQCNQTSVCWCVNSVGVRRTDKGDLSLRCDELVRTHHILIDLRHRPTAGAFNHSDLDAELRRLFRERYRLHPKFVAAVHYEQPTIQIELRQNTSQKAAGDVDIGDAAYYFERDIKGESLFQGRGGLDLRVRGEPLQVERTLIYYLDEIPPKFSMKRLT
# Experiments:
# Assay in all cases: BLI
# TNF-alpha [1] = molecular target: TNF-alpha (human)
# TNF-alpha (human), sequence (chain, as listed by the source): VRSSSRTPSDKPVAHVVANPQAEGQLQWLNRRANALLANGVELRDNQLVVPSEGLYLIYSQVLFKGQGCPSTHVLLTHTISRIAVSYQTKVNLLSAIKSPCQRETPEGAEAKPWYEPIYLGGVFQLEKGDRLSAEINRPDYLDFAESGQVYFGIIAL
# Trop2 = molecular target: T1, Trop2
# FAP [2] = molecular target: T2, FAP (human, UniProt Q12884)
# T2 sequence (Q12884 26-760): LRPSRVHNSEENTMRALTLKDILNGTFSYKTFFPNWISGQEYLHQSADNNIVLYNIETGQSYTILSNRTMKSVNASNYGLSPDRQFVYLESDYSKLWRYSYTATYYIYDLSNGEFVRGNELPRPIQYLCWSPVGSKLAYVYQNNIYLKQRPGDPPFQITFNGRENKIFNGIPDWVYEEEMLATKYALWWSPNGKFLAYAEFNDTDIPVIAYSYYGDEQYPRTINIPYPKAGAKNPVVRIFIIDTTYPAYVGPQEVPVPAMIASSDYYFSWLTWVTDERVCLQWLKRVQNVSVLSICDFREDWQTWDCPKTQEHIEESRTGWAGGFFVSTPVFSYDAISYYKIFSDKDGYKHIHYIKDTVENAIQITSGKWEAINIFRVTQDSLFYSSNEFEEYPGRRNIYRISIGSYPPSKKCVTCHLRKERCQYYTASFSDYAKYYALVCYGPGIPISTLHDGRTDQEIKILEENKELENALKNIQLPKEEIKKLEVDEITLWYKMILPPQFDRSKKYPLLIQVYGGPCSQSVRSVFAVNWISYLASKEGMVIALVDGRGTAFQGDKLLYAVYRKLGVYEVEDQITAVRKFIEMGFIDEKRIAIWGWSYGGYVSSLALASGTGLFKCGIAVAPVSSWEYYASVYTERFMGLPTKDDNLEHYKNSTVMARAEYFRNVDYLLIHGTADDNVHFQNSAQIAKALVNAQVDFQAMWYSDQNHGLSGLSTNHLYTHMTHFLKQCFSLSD
# TNF-alpha [3] = molecular target: TNF-alpha (human); remark: listed apart in the source
# FAP [4] = molecular target: T2, FAP; remark: listed apart in the source
# TNF-alpha [5] = molecular target: TNF-alpha (human); remark: listed apart in the source
Kd (TNF-alpha [1]) [nM],Kd (Trop2) [nM],Kd (FAP [2]) [nM],Kd (TNF-alpha [3]) [nM],Kd (FAP [4]) [nM],Kd (TNF-alpha [5]) [nM],Binder
16.5,101,,,,,"TN01 (antibody, V domains shown) VH: EVQLVESGGGLVQPGGSLRLSCAASGYVFTDYGMNWVRQAPGKGLEWMGWINTAYGSPDYADSVKGRFTFSLDTSKSTAYLQMNSLRAEDTAVYYCARGYRYYAMDYWGQGTLVTVSS VL: DIQMTQSPSSLSASVGDRVTITCKASQNVGTNVAWYQQKPGKAPKALIYSASFLYSGVPYRFSGSGSGTDFTLTISSLQPEDFATYYCQQVGDYPLTFGQGTKVEIKR"
,,2.19,25.7,13.1,20.5,"FN15 (antibody, V domains shown) VH: EVQLVESGGGLVQPGGSLRLSCAASGYVFTDYGMNWVRQAPGKGLEWMGWINTDNGTPYYADSVKGRFTFSLDTSKSTAYLQMNSLRAEDTAVYYCARGYRSYAMDYWGQGTLVTVSS VL: DIQMTQSPSSLSASVGDRVTITCKASQYTYNAVAWYQQKPGKAPKALIYSASFLYSGVPYRFSGSGSGTDFTLTISSLQPEDFATYYCQQSYGYLVTFGQGTKVEIKR"
